# Paper PMC5264506, “An antibody that prevents serpin polymerisation acts by inducing a novel allosteric behaviour” (Biochemical Journal, 2016)
# B1: 11-mer RCL peptide Ac-SEAAASTAVVI-NH2 (peptide)
# peptide: Ac-SEAAASTAVVI-NH2
# notes: model peptide corresponding with the reactive centre loop (RCL) of anti-thrombin; source: synthetic peptide
# B2: α1-AT_(79-306), disulphide variant Gly79Cys/Leu306Cys (natural protein, UniProt P01009 25-418, looked up)
# chain: EDPQGDAAQKTDTSHHDQDHPTFNKITPNLAEFAFSLYRQLAHQSNSTNIFFSPVSIATAFAMLSLGTKADTHDEILECLNFNLTEIPEAQIHEGFQELLRTLNQPDSQLQLTTGNGLFLSEGLKLVDKFLEDVKKLYHSEAFTVNFGDTEEAKKQINDYVEKGTQGKIVDLVKELDRDTVFALVNYIFFKGKWERPFEVKDTEEEDFHVDQVTTVKVPMMKRLGMFNIQHSKKLSSWVLLMKYLGNATAIFFLPDEGKLQHLENELTHDIITKFLENEDRRSASLHLPKLSITGTYDLKSVLGQCGITKVFSNGADLSGVTEEAPLKLSKAVHKAVLTIDEKGTEAAGAMFLEAIPMSIPPEVKFNKPFVFLMIEQNTKSPLFMGKVVNPTQK
# modifications: disulphide 79-306 present in ~90% of molecules
# notes: alpha1-antitrypsin, 'M' allele, engineered disulphide between helix C and the C-terminus of helix I, on the Cys232Ser background; also called 79-306 double mutant; source: E. coli XL-1 blue, pQE-30-based plasmid, purified
# Assays:
# [1] = target: α1-antitrypsin, plasma-derived wild-type (M) (UniProt P01009); experiment: progress curves of intrinsic protein fluorescence (peptide incorporation) + native gel or EMSA; as a5, in the presence of mAb4B12
# [2] = target: T1, α1-antitrypsin, plasma-derived wild-type (M) (UniProt P01009 25-418); experiment: as above; conditions: both partners purified
# T1 construct: alpha1-antitrypsin, wild-type 'M' allele, plasma-derived; also called α1-AT; α1-ATWT; source: plasma-derived
# [3] = target: the molecule itself; experiment: native gel or EMSA; endpoint polymerisation: 0.1 mg/ml heated for 4 h (55°C, or 45-63°C) without antibody during heating; bis-Tris non-denaturing PAGE, Coomassie; polymerisation read as loss of the monomer band
binder,measurement,setting,value
Ac-FLAA-NH2 [4-mer peptide Ac-FLAA-NH2],fold increase in the rate of peptide incorporation with mAb4B12 against the non-antibody-bound control,[1],1.8 fold
B1,fold increase in the rate of peptide incorporation with mAb4B12 against the non-antibody-bound control,[2],2.5 fold
B2,binding result,[3],binds
